Test results as given in the supplement of paper PMC9170038.

Tested on: MS2 coat protein
Assay: apparent KD of MS2 coat protein; designed switch direction (-1 OFF switch, 1 ON switch): -1; higher = weaker reporter binding
Summary of the method: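 Designed RNA switches with common flanks were made on Illumina chips by stalled E. coli RNA polymerase. Titration with SNAP-549-labelled MS2 coat protein doubled from 0.7 or 1.5 nM up to 3 µM. Apparent KD is each design's median over clusters after curve-fitting normalised fluorescence.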

[1] = Eterna round: R95, input ligand: FMN 200 uM
[2] = Eterna round: R95, input ligand: microRNA oligo, concentration not stated
[3] = Eterna round: R95, input ligand: none
[4] = input ligand: microRNA oligo, concentration not stated

AUAUUAAUAUAGGAUAUCGAAUUUAUAAAUUAUCGAGAAGGAUAAACAUGAGGAUCACCCAUGUGGUAUCAUGG [Mat - Exclusion 6 - JL Mod - D42] (puzzle: Exclusion 6)
apparent KD of MS2 coat protein [1]: 239 nM | apparent KD of MS2 coat protein [2]: 222 nM | apparent KD of MS2 coat protein [3]: 346 nM

GGUUGGCGAGGAUAUACAUGAGGAUCACCCAUGUGGUCCUGUGGCUGGUCUAAACUUUGUAGAAGGCGCGGGUC [salish99_ex3_r4_022] (Eterna round: R97, puzzle: Exclusion 3)
apparent KD of MS2 coat protein (input ligand: FMN 200 uM): 84.9 nM | apparent KD of MS2 coat protein (input ligand: none): 78.1 nM

UGGGUUCUCCAUAGAAGUAACAUGAGGAUCACCCAUGUAGGGCAAGUUUUUUGUUCGUCAUAGGCUGUGGAUUUGGA [JR_SV3TOV1_Sub020] (puzzle: Sensor v3, turn-off variant 1)
apparent KD of MS2 coat protein [1]: 90.8 nM | apparent KD of MS2 coat protein [2]: 170 nM | apparent KD of MS2 coat protein [3]: 133 nM

GGAUAAAACUGAGGAUAUACGUAUCACUAACGAGUAGAAGGCAGACAUGAGGAUCACCCAUGUGAGUUCUCAAUAAGAAACACG [Prohibition 65 - Jieux - Exclusion NG 1] (Eterna round: R96, puzzle: Exclusion NG 1)
apparent KD of MS2 coat protein (input ligand: FMN 200 uM): 74.9 nM | apparent KD of MS2 coat protein [4]: 43.5 nM | apparent KD of MS2 coat protein (input ligand: none): 51.2 nM

AAACCAAUAGUCAGGAUAUCUUAGUCGCGGAUGUGGGAGAAGGGACAUGAGGAUCACCCAUGUGGGAGUAUGUG [Eternabot (L1) Solution 19] (Eterna round: R97, puzzle: Brourd's mod of Exclusion 4)
apparent KD of MS2 coat protein (input ligand: FMN 200 uM): 116 nM | apparent KD of MS2 coat protein (input ligand: none): 122 nM

GGUUACAAGCUAAGAUCCUACAUGAGGAUCACCCAUGUGGUCCGGUGACGUGAGUCACCGGACUUAGCUCGUCUUGU [salish99_S_TOV1_R5_002] (Eterna round: R97, puzzle: Sensor, turn-off variant 1)
apparent KD of MS2 coat protein (input ligand: FMN 200 uM): 75.4 nM | apparent KD of MS2 coat protein (input ligand: none): 80 nM

UUUAAGGUAAUUAAGAUCACAUGAGGAUCACCCAUGUAUAUAUAGGAUAUCAGCUCGAUUAGAGCUGAGAAGGAUAUAUACAUA [ExNG3/6-C1] (Eterna round: R96, puzzle: Exclusion NG 3)
apparent KD of MS2 coat protein (input ligand: FMN 200 uM): 66.1 nM | apparent KD of MS2 coat protein [4]: 33.3 nM | apparent KD of MS2 coat protein (input ligand: none): 142 nM

UAAGUUUACCGAGGAUAUGGUUUUUCCUAUUAACCAGAAGGCGGACUCAACAUGAGGAUCACCCAUGUAUAAAGGGUAUUAGGU [JR_ExcNG1_Sub044] (Eterna round: R96, puzzle: Exclusion NG 1)
apparent KD of MS2 coat protein (input ligand: FMN 200 uM): 88.5 nM | apparent KD of MS2 coat protein [4]: 68 nM | apparent KD of MS2 coat protein (input ligand: none): 74.2 nM

UAAAGUAUAUAGGAUAUCUAGCUGGUAACAGCUAGAGAAGGAUGUACAUGAGGAUCACCCAUGUAAAUCAUGAA [Ex6/16-A2] (Eterna round: R97, puzzle: Exclusion 6)
apparent KD of MS2 coat protein (input ligand: FMN 200 uM): 20.8 nM | apparent KD of MS2 coat protein (input ligand: none): 17.3 nM

UCUUAGUCAGGAUAUACAUGAGGAUCACCCAUGUAAAAUUUUAAUUUAAUUUUAAGGUGUAGAAGGGACCACUU [Ex3 #19] (Eterna round: R97, puzzle: Exclusion 3)
apparent KD of MS2 coat protein (input ligand: FMN 200 uM): 22.2 nM | apparent KD of MS2 coat protein (input ligand: none): 29 nM

AAUAACAAGCAGAUCCUAAACAUGAGGAUCACCCAUGUGCGCGUCUUGUAAAGUACUAUCACGAAAGUGAUAGUACA (Eterna round: R97, puzzle: Sensor, turn-off variant 1)
apparent KD of MS2 coat protein (input ligand: FMN 200 uM): 190 nM | apparent KD of MS2 coat protein (input ligand: none): 133 nM

CGGAUACAUGAGGAUCACCCAUGUGAGGAUAUCGUACGUUCGUCGAAAGACGAUCGUACGAGAAGGCAUGACCG [Eli x1 4.36] (Eterna round: R97, puzzle: Exclusion 1)
apparent KD of MS2 coat protein (input ligand: FMN 200 uM): 64 nM | apparent KD of MS2 coat protein (input ligand: none): 113 nM

GUAUGGAGAGUGAGGAUAUUUCCUGAGUGAUCAGCGAAGAAGGUACAUGAGGAUCACCCAUGUAGGUGGACUAA [Eternabot (L1) Solution 14] (Eterna round: R97, puzzle: Brourd's mod of Exclusion 4)
apparent KD of MS2 coat protein (input ligand: FMN 200 uM): 82.4 nM | apparent KD of MS2 coat protein (input ligand: none): 70.5 nM

GACAAGGGAGGAUAUGCACAAGGGAUAUCUGACAUGCCGAUACAUGAGGAUCACCCAUGUAGAAGGCCCGAAUA [Oneser] (puzzle: Exclusion 2)
apparent KD of MS2 coat protein [2]: 12.5 nM

GGGCAGGGAGGAUAUGUAUCGCACUACAUGAGGAUCACCCAUGUGCCUUUUGUGACGUGGACAGAAGGUCCUGCCG [Eternabot (L1) Solution 17] (Eterna round: R97, puzzle: Exclusion 5)
apparent KD of MS2 coat protein (input ligand: FMN 200 uM): 129 nM | apparent KD of MS2 coat protein (input ligand: none): 193 nM

AGGAUCCUAGGAUAUGCUGGGUAUCGCUGUCGGAGGGACAGACAUGAGGAUCACCCAUGUAGAAGGAGGCGCUC [Eternabot (L1) Solution 5] (Eterna round: R97, puzzle: Exclusion 2)
apparent KD of MS2 coat protein (input ligand: FMN 200 uM): 3680 nM | apparent KD of MS2 coat protein (input ligand: none): 667 nM

ACAUGAGGAUCACCCAUGUUAUGUUGGGUACUAAAUUAUUCGUAGGAUAUCGUAGCUAGUUUGUGCGAGAAGGACGCAUUUUUU [JR_ExcNG3_Sub059] (Eterna round: R96, puzzle: Exclusion NG 3)
apparent KD of MS2 coat protein (input ligand: FMN 200 uM): 205 nM | apparent KD of MS2 coat protein [4]: 229 nM | apparent KD of MS2 coat protein (input ligand: none): 273 nM

UCACGGGACUGAGGAUAUACAUGAACCAUGUUUGUAGAAGGCAGAAGGUUUGAUCAUACACUAAACAUGAGGAUCACCCAUGUU [JR_ExcNG1_Sub027] (Eterna round: R96, puzzle: Exclusion NG 1)
apparent KD of MS2 coat protein (input ligand: FMN 200 uM): 21.1 nM | apparent KD of MS2 coat protein [4]: 15.1 nM | apparent KD of MS2 coat protein (input ligand: none): 25.1 nM

GGUAGAGAGCAGGAUAUCUUGGGUAAGUAUCGUAGAGAAGGGCUCACAUGAGGAUCACCCAUGUGGUCCAAGAU [JL Dibiri mod 05] (puzzle: Exclusion 6)
apparent KD of MS2 coat protein [2]: 14.2 nM

CUCCGGCAUGUAGGAUAUGGAUCCGAUUAGGAUCCAGAAGGACAUGAGGAUCACCCAUGUACAUGUAAACAGUCAUCACCGGAC [salish99_ExNG1_r04_202] (Eterna round: R96, puzzle: Exclusion NG 1)
apparent KD of MS2 coat protein (input ligand: FMN 200 uM): 284 nM | apparent KD of MS2 coat protein [4]: 29.9 nM | apparent KD of MS2 coat protein (input ligand: none): 44.2 nM

ACGCAUUGCCUUUGGUAGUGCGUAACAUGAGGAUCACCCAUGUAGGAUAUGGUAGGCUUUGCUUACCAGAAGGACAUUAUAUUC [JL ENG3 1.03] (Eterna round: R96, puzzle: Exclusion NG 3)
apparent KD of MS2 coat protein (input ligand: FMN 200 uM): 69.4 nM | apparent KD of MS2 coat protein [4]: 22.1 nM | apparent KD of MS2 coat protein (input ligand: none): 21.9 nM

GACAGGGCAGGAUAUCGAAUUCCUCACAUGAGGAUCACCCAUGUUCAGUCGAAAGACUGACGAGAAGGGCCGUGUC [Omei Ex5 E1] (Eterna round: R97, puzzle: Exclusion 5)
apparent KD of MS2 coat protein (input ligand: FMN 200 uM): 1020 nM | apparent KD of MS2 coat protein (input ligand: none): 2290 nM

UUCGUGCUGCUUUGCUGUACGAGUACAUGAGGAUCACCCAUGUAGGAUAUGGACAUGAGGAUCACCCAGAAGGAUAUGUGUUGC [salish99_ExNG3_r04_508] (Eterna round: R96, puzzle: Exclusion NG 3)
apparent KD of MS2 coat protein [4]: 87.5 nM

AACAGAAAAGAAAUAAAUAACAUGAGGAUCACCCAUGUCAACGGGUAAGAGCUCAACGAGCUGCGAGUCUUACUCAA [Enreaerre] (Eterna round: R96, puzzle: Sensor v2, turn-off variant)
apparent KD of MS2 coat protein (input ligand: FMN 200 uM): 25.7 nM | apparent KD of MS2 coat protein [4]: 17.5 nM | apparent KD of MS2 coat protein (input ligand: none): 24.7 nM

CCCAGAUAGGAAGGAUAUUGUACAUGAGGAUCACCCAUGUAAUAAAUGAGGAUCACGGAUGUAGACAAGAAGGUCCGGAUAGGC [Ostracism 7 - Jieux - Exclusion NG 2] (Eterna round: R96, puzzle: Exclusion NG 2)
apparent KD of MS2 coat protein (input ligand: FMN 200 uM): 108 nM | apparent KD of MS2 coat protein [4]: 42.5 nM | apparent KD of MS2 coat protein (input ligand: none): 50.2 nM

AUAUUUAAUGAGGAUAUCGUUGUAGGUAUAUAGCGAGAAGGCAUUACAUGAGGAUCACCCAUGUAGUGUGGGUU [JR_Ex6_Sub021] (Eterna round: R97, puzzle: Exclusion 6)
apparent KD of MS2 coat protein (input ligand: FMN 200 uM): 78.7 nM | apparent KD of MS2 coat protein (input ligand: none): 23.7 nM

UGUGCGUAUGUGAGGAUAUGCUGGUCCUUGGAUCAGCAGAAGGCACAUGAGGAUCACCCAUGUGGUGUCGUACU [salish99_Bmod_Ex4_009] (puzzle: Brourd's mod of Exclusion 4)
apparent KD of MS2 coat protein [2]: 202 nM

GCGCGGUGAGGAUAUGCGGCGCGCGGGCGCGGGCGGGCGCGGCAGAAGGCACAUGAGGAUCACCCAUGUGGGCG [Prefect Exclusion4] (Eterna round: R97, puzzle: Exclusion 4)
apparent KD of MS2 coat protein (input ligand: FMN 200 uM): 109 nM | apparent KD of MS2 coat protein (input ligand: none): 24.2 nM

UAUUUAGCAAGCAGAUCCCACAUGAGGAUCACCCAUGUUUUCUGAAAAUAAAUUAAAAUAGCUGAAGCUCGUCUUAU [Winner reversed engineered 38] (Eterna round: R97, puzzle: Sensor, turn-off variant 1)
apparent KD of MS2 coat protein (input ligand: FMN 200 uM): 139 nM | apparent KD of MS2 coat protein (input ligand: none): 137 nM

GUGCGCGGCUAGGAUAUUGUGGGUUUUUGUCUGCGAGAAGGAGCCACAUGAGGAUCACCCAUGUGGUGUUGCUC [salish99_ex6_r4_013] (Eterna round: R97, puzzle: Exclusion 6)
apparent KD of MS2 coat protein (input ligand: FMN 200 uM): 220 nM | apparent KD of MS2 coat protein (input ligand: none): 63.6 nM

GUUAACGCAGGAUAUUAGUACAUGUACAUGAGGAUCACCCAUGUUUAUUGGGUCUAAGAAUAAGAAGGGCGAUGAA [JR_Ex5_Sub006] (Eterna round: R97, puzzle: Exclusion 5)
apparent KD of MS2 coat protein (input ligand: FMN 200 uM): 402 nM | apparent KD of MS2 coat protein (input ligand: none): 631 nM

UUGUUCUGAGGAUAUACAUGAGGAUCACCCAUGUGUUUCAGCUAGGAGACUAGCGAAAGUAGAAGGCUGUACUC [salish99_ex3_r4_017] (Eterna round: R97, puzzle: Exclusion 3)
apparent KD of MS2 coat protein (input ligand: FMN 200 uM): 26.9 nM | apparent KD of MS2 coat protein (input ligand: none): 24.9 nM

GCAGUGCGAGGAUAUACAUGAGGAUCACCCAUGUGAGAAUAAGAAGUGAGGAAGAAAAGUAGAAGGCGCGUUGG [Mat - Exclusion 3 - Mod of Salish D66] (puzzle: Exclusion 3)
apparent KD of MS2 coat protein [1]: 77.5 nM | apparent KD of MS2 coat protein [2]: 36.4 nM | apparent KD of MS2 coat protein [3]: 59.6 nM
